# Assay results published in US20240018189A1 (PROTAGONIST THERAPEUTICS, published 2024).
# Positions of bridges follow the written chain, without caps; N, C: chain ends. Non-standard residues stand in square brackets, D forms with d. Groups on a side chain read outwards from the residue. *: point of attachment. PEG12 = NCCOCCOCCOCCOCCOCCOCCOCCOCCOCCOCCOCCOCCC(=O)O; Phe(4-tBu) = CC(C)(C)c1ccc(C[C@H](N)C(=O)O)cc1; Phe(3,4-F2) = N[C@@H](Cc1ccc(F)c(F)c1)C(=O)O; Dip = N[C@H](C(=O)O)C(c1ccccc1)c1ccccc1; Palmitoyl = CCCCCCCCCCCCCCCC(=O)*; β3hF = N[C@H](CC(=O)O)Cc1ccccc1; Isovaleryl = CC(C)CC(=O)*; Dap = NC[C@H](N)C(=O)O; Npc = nipecotic acid; βAla = NCCC(=O)O
# Target: T1, human ferroportin (SLC40A1) fused in frame with GFP (human, UniProt Q9NP59 1-571)
# T1 sequence (looked up): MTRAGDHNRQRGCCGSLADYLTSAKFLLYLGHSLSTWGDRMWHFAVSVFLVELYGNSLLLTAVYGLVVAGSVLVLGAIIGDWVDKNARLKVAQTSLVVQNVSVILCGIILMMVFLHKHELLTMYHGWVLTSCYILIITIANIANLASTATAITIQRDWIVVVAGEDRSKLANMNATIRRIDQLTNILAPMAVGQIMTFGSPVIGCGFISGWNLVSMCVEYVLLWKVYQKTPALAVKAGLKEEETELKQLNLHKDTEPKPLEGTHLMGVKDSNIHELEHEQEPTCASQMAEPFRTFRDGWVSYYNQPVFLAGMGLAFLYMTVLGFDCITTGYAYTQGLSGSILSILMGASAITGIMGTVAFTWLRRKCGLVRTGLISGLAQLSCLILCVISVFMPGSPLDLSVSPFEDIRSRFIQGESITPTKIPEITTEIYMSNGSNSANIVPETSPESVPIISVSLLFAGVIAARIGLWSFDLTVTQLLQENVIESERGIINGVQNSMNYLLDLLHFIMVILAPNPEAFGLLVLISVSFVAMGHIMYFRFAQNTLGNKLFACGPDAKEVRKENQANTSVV
# Experiment: cell-based or functional assay
row,FPN EC50,Binder
1,0.00254 µM,Isovaleryl-DTH[Dip]PCI[Dap]([Dap-Palmitoyl])[β3hF]C-NH2 (disulfide 6-10 (inferred)) [Compd. ID 1]

# Target: T2, human ferroportin (SLC40A1) fused in frame with GFP (human) (UniProt Q9NP59)
# T2 sequence (looked up): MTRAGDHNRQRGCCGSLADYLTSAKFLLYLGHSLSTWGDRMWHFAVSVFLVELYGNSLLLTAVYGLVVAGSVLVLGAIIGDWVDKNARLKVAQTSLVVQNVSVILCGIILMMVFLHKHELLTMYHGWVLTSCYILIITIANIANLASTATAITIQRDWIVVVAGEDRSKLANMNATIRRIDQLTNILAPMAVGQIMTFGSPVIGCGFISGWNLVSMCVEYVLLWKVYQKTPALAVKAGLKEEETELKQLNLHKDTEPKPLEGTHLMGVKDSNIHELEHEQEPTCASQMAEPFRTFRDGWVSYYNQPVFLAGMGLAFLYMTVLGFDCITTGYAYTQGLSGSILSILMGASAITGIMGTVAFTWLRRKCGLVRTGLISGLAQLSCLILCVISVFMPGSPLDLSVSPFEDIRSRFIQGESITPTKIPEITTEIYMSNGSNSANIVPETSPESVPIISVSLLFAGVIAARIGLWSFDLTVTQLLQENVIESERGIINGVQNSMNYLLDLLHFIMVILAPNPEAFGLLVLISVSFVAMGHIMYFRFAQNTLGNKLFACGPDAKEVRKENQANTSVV
# Experiment: cell-based or functional assay
IC50: FPN internalisation,FPN EC50,Binder
0.0233 µM,,Isovaleryl-DTH[Dip]PCI[β3hF][dK]C-NH2 (disulfide 6-10 (inferred)) [Seq. No. 324]
,0.0184 µM,DTHXPCIKXKC (N-term isovaleric acid; 4 Dpa; 8 Lys[1Peg2-1Peg2-isoGlu-Behenic_Acid]; 9 bhPhe; 10 (D)Lys; C-term NH2) [Compd. ID 9]
0.00693 µM,,Isovaleryl-DTH[Dip]PCI[β3hF]K([PEG12-Palmitoyl])[dK]C-NH2 (disulfide 6-11 (inferred)) [Seq. No. 330]
0.023 µM,,DTHXPCIKXKKC (N-term isovaleric acid; 4 Dpa; 8 (D)Lys; 9 Dpa; 10 Lys(PEG12_Palm); 11 (D)Lys; C-term NH2) [Seq. No. 345]
0.032 µM,,Isovaleryl-DTHFPCI[dK]FK([PEG12-Palmitoyl])CK-NH2 (disulfide 6-11 (inferred)) [Seq. No. 334]
0.0165 µM,,Isovaleryl-DTH[Dip][Npc]CI[dK][Phe(4-tBu)][dK]CK([PEG12-Palmitoyl])-NH2 (disulfide 6-11 (inferred)) [Seq. No. 328]
0.0378 µM,,DTHXPCIKXKC (N-term isovaleric acid; 4 Dpa; 8 (D)Lys(Ac); 9 bhPhe; 10 Lys(Ac); C-term NH2) [Seq. No. 325]
0.0228 µM,,DTHXPCIKFKXC (N-term isovaleric acid; 4 Dpa; 8 (D)Lys; 10 Lys(PEG12 Palm); 11 Dab; C-term NH2) [Seq. No. 339]
,0.55 µM,DTHXPCIKXKC (N-term isovaleric acid; 4 Dpa; 8 Lys[Ahx-Behenic_Acid]; 9 bhPhe; 10 (D)Lys; C-term NH2) [Compd. ID 8]
0.00616 µM,,"Isovaleryl-DTH[Dip][Npc]CI[dK][Phe(3,4-F2)]K([PEG12-Palmitoyl])KC-NH2 (disulfide 6-12 (inferred)) [Seq. No. 346]"
0.00716 µM,,Isovaleryl-DTH[Dip]PCI[βAla][β3hF]K([PEG12-Palmitoyl])[dK]C-NH2 (disulfide 6-12 (inferred)) [Seq. No. 333]
0.0269 µM,,DTHXPCIKFKXC (N-term isovaleric acid; 4 Dpa; 8 (D)Lys; 10 Lys(PEG12_Palm); 11 Orn; C-term NH2) [Seq. No. 340]
0.024 µM,,Isovaleryl-DTH[Dip]PCII[β3hF]K([PEG12-Palmitoyl])[dK]C-NH2 (disulfide 6-12 (inferred)) [Seq. No. 331]
0.022 µM,,DTHXPCIKFKC (N-term isovaleric acid; 4 Dpa; 8 (D)Lys; 10 Lys(PEG12_Palm); C-term NH2) [Seq. No. 341]
0.142 µM,,DTHXPCIKXKKC (N-term isovaleric acid; 4 Dpa; 8 (D)Lys; 9 bhPhe; 11 (D)Lys; C-term NH2) [Seq. No. 327]
0.0957 µM,,DTHXPCIKXKC (N-term isovaleric acid; 4 Dpa; 8 (D)Lys; 9 bhPhe; 10 Lys(Ac); C-term NH2) [Seq. No. 326]
0.00775 µM,,DTHXPCIKFKKX (N-term isovaleric acid; 4 Dpa; 8 (D)Lys; 10 Lys(PEG12_Palm); 11 (D)Lys; 12 Pen; C-term NH2) [Seq. No. 344]
0.011 µM,,Isovaleryl-DTH[Dip]PCI[dA][β3hF]K([PEG12-Palmitoyl])[dK]C-NH2 (disulfide 6-12 (inferred)) [Seq. No. 332]
0.0204 µM,,DTHXPCIKFKXC (N-term isovaleric acid; 4 Dpa; 8 (D)Lys; 10 Lys(PEG12 Palm); 11 bhLys; C-term NH2) [Seq. No. 338]
